± gives the uncertainty stated by the source.
Test: protein stability index of a GFP-peptide fusion (yeast GPS) (PSI 1-4); higher = more stable; sorted into four equal gates, so the index is relative within each strain
Method in brief: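 Tiled yeast protein peptides of 17 residues were each joined downstream of GFP, on plasmids that also express Cherry. The pooled library was maintained in yeast, and mid-log cultures in leucine-free medium were sorted into four equal gates on the GFP/Cherry ratio. Plasmids from every gate were amplified by PCR and sequenced on Illumina, with barcodes linking reads to strains. The protein stability index of a peptide is its gate-number-weighted read frequency summed over the gates.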

Row | Sequence | protein stability index (doa10∆) | protein stability index (pdr5∆) | protein stability index (san1∆) | protein stability index (ubr1∆)
1 | KTAYSIYLSQNELTDAI [RPN1] | 2.48 ± 0.037 | 2.28 ± 0.038 | 2.71 ± 0.037 | 2.08 ± 0.023
2 | CGAWEPAITIEKLKQFS [SIR3] | 1.97 ± 0.087 | 1.76 ± 0.079 | 2.58 ± 0.13 | 1.54 ± 0.072
3 | LSIQYMIQKVMEYLKSS [RPN5] | 1.38 ± 0.082 | 1.56 ± 0.082 | 1.59 ± 0.2 | 1.69 ± 0.11
4 | DENELKKSEEKLREKVN [MTW1] | 2.97 ± 0.27 |  |  | 
5 | TITKRNGAFQNSSNLSY [RRP4] | 3.04 ± 0.054 | 3.02 ± 0.057 | 3.1 ± 0.04 | 3.11 ± 0.042
6 | KLQSQSLHTKNVFGTLQ [YLR018C/POM34] | 2.87 ± 0.12 | 2.82 ± 0.12 | 2.29 ± 0.26 | 2.94 ± 0.11
7 | LTSNLSNYSRTMTISHL [YJL039C/NUP192] | 2.56 ± 0.074 | 2.32 ± 0.061 | 1.98 ± 0.084 | 2.48 ± 0.04
8 | ENGLQLSDNAKTLHSQM [RPC34] | 3.11 ± 0.18 | 3.27 ± 0.096 | 3.27 ± 0.07 | 3.13 ± 0.053
9 | MSAVPSVQTFGKKKSAT [RPS16A] | 1.45 ± 0.1 | 1.32 ± 0.15 | 1.26 ± 0.26 | 1.22 ± 0.13
10 | TRNSLGNVIQFIYGEDG [RPO21] | 3.01 ± 0.06 | 2.92 ± 0.053 | 3.25 ± 0.042 | 3.28 ± 0.037
11 | IYNGKAFNQVEIRPEML [RPS15] | 2.9 ± 0.12 | 3.04 ± 0.18 | 3.39 ± 0.11 | 3.26 ± 0.14
12 | QVENMKWDFAKDIKGYG [PRE4] | 2.03 ± 0.078 | 1.54 ± 0.082 | 1.41 ± 0.16 | 1.68 ± 0.049
13 | IEHPMTSAIEVLVGSCA [RPN1] | 1.94 ± 0.043 | 1.81 ± 0.042 | 2.14 ± 0.057 | 1.82 ± 0.046
14 | LGHPDNYIPGNPLVTPA [COB] | 2.49 ± 0.11 | 3.07 ± 0.13 | 2.93 ± 0.075 | 2.93 ± 0.068
15 | EGTRNRFSYSPPKEGNY [YMR129W/POM152] | 3.19 ± 0.13 | 3.06 ± 0.062 | 2.88 ± 0.043 | 3.13 ± 0.042
16 | AKSTPNTNPSPLKTQTK [GAL11] | 2.82 ± 0.051 | 2.94 ± 0.046 | 2.64 ± 0.05 | 2.91 ± 0.038
17 | LHQHVVLKCLKSLESQR [RPC34] | 2.77 ± 0.11 | 2.58 ± 0.083 | 2.41 ± 0.095 | 2.53 ± 0.11
18 | TGAGAFGTGQSTFGFNN [YJL041W/NSP1] | 2.72 ± 0.055 | 2.57 ± 0.064 | 3.02 ± 0.058 | 2.85 ± 0.046
19 | NQIWNIALNLASKKFGK [SSN2] | 2.7 ± 0.13 | 2.88 ± 0.052 | 3.06 ± 0.067 | 3.08 ± 0.056
20 | DTVIIFDTDWNPHQDLQ [SNF2] | 2.93 ± 0.064 | 3.1 ± 0.05 | 3.02 ± 0.033 | 2.84 ± 0.044
21 | QQEAKYRNNEPAGFTHK [YDL088C/ASM4] | 2.88 ± 0.052 | 2.98 ± 0.046 | 2.6 ± 0.059 | 2.83 ± 0.045
22 | NEIIRSLSDEVMRNEIR [SIR4] | 2.64 ± 0.058 | 2.1 ± 0.048 | 2.52 ± 0.068 | 2.39 ± 0.049
23 | ELLAYQFASPVRWIETQ [FAS2] | 1.77 ± 0.021 | 1.86 ± 0.019 | 1.92 ± 0.027 | 1.728 ± 0.016
24 | GAVIQLLKSTGLHPFEV [RPB4] | 3.32 ± 0.13 | 3.19 ± 0.14 | 3.07 ± 0.2 | 2.99 ± 0.084
25 | KSEFDDLSLNIHPIPSV [YMR129W/POM152] | 2.64 ± 0.043 | 2.92 ± 0.039 | 2.75 ± 0.032 | 2.76 ± 0.032
26 | AAGYGKILGKGRIPNVP [RPL28] | 3.46 ± 0.087 | 3.2 ± 0.075 | 3.46 ± 0.066 | 3.48 ± 0.05
27 | GMPHKFYQGKTGVVYNV [RPL21A] | 2.84 ± 0.088 | 2.86 ± 0.077 | 2.53 ± 0.078 | 2.61 ± 0.067

Row | Sequence | protein stability index (doa10∆) | protein stability index (pdr5∆) | protein stability index (san1∆) | protein stability index (ubr1∆)
28 | IITNINAIFLSSEQDYS [YCG1] | 2.54 ± 0.078 | 2.58 ± 0.13 | 1.58 ± 0.22 | 2.89 ± 0.098
29 | IGARSQGAKTYLERTLD [PRE5] | 3.36 ± 0.13 | 3.34 ± 0.069 | 3.23 ± 0.07 | 3.22 ± 0.066
30 | TSFEQGEITFDGIGGLT [RPT4] | 3.1 ± 0.085 | 3.18 ± 0.074 | 3.05 ± 0.066 | 3.49 ± 0.059
31 | LNIDWSTTGDNGELDLS [MED2] | 2.2 ± 0.057 | 2.48 ± 0.058 | 2.13 ± 0.079 | 2.28 ± 0.044
32 | TRPYILERARDVNIVNR [YCG1] | 3.29 ± 0.1 | 2.78 ± 0.21 | 3.48 ± 0.18 | 3.08 ± 0.11
33 | KTDLELLVERLKEDDSS [RPN1] | 3.18 ± 0.11 | 3.3 ± 0.14 | 3.05 ± 0.1 | 3.18 ± 0.17
34 | DTTVPKRLGPKRANNIR [RPS6A] | 3.46 ± 0.11 | 3.68 ± 0.11 | 3.19 ± 0.051 | 3.37 ± 0.063
35 | QFSYLSSTLGIDLEDIK [PCI8] | 2.36 ± 0.064 | 2.23 ± 0.076 | 1.71 ± 0.12 | 2.01 ± 0.07
36 | PSTKVASSAVMNRRKIA [YLR335W/NUP2] | 1.41 ± 0.071 | 1.77 ± 0.062 | 2.14 ± 0.12 | 2.38 ± 0.073
37 | SLSYMAFPNASKKNRPT [RRP40] | 2.2 ± 0.22 | 2.89 ± 0.15 |  | 2.9 ± 0.14
38 | QQQLQQNSKEKNGLGLN [MED2] | 2.5 ± 0.29 | 3.26 ± 0.12 | 2.42 ± 0.26 | 2.96 ± 0.13
39 | SYLISHKDSFYDRATLT [RPO31] | 2.43 ± 0.073 | 2.6 ± 0.067 | 2.21 ± 0.065 | 2.35 ± 0.072
40 | GQRDLDRIAAQTLEEDE [RPS19A] | 3.21 ± 0.087 | 3.21 ± 0.091 | 3.29 ± 0.1 | 3.23 ± 0.097
41 | LKPDLNKITNQGVTCLH [NAS6] | 2.36 ± 0.11 | 2.05 ± 0.052 | 3.13 ± 0.079 | 2.38 ± 0.059
42 | KTCIQGINSPLSSVALR [YJL039C/NUP192] |  | 1.41 ± 0.25 |  | 
43 | LTATPNSINKTTVPFKE [POP1] | 1.75 ± 0.061 | 2.44 ± 0.06 | 1.66 ± 0.14 | 2.48 ± 0.054
44 | LITKANKVSYYGNPTSK [RTT102] | 2.21 ± 0.044 | 1.89 ± 0.042 | 1.97 ± 0.089 | 2.2 ± 0.045
45 | TFAKSKNYSRPSTAIHT [SIR4] | 2.03 ± 0.099 | 1.79 ± 0.066 | 1.53 ± 0.1 | 2.15 ± 0.05
46 | FRYITTWENEFLDSQRV [PRP8] | 2.77 ± 0.065 | 2.69 ± 0.059 | 2.48 ± 0.061 | 3.03 ± 0.046
47 | TPNTNSNSTPNANQQFL [SWI1] | 3.11 ± 0.054 | 3.15 ± 0.047 | 2.93 ± 0.053 | 3.1 ± 0.035
48 | WKATYSNEFKCMSVITA [YGL100W/SEH1] | 1.87 ± 0.056 | 1.64 ± 0.051 | 1.51 ± 0.073 | 2.07 ± 0.032
49 | VISMFVLPIFTTVFFSR [YML031W/NDC1] | 1.38 ± 0.046 | 1.16 ± 0.065 | 1.17 ± 0.11 | 1.16 ± 0.057
50 | DDLERLKKIRAHRGIRH [RPS18A] | 1.47 ± 0.18 | 1.31 ± 0.1 | 1.21 ± 0.18 | 1.31 ± 0.18
51 | IGAGVPSLEVASEYIET [FAS1] | 3.38 ± 0.15 | 3.12 ± 0.18 | 2.18 ± 0.23 | 
52 | SMGTMICGYTRKEGPTI [PRE2] | 3.27 ± 0.078 | 3.21 ± 0.077 | 3.33 ± 0.039 | 2.71 ± 0.069
53 | YTYHSTNKDNKAELIKP [ARP9] | 2.74 ± 0.065 | 2.69 ± 0.053 | 3.06 ± 0.044 | 2.98 ± 0.063

— the supplement of paper PMC9732359
